This data set addresses T1, C-reactive protein (CRP) (human, UniProt P02741 19-224).
T1 sequence: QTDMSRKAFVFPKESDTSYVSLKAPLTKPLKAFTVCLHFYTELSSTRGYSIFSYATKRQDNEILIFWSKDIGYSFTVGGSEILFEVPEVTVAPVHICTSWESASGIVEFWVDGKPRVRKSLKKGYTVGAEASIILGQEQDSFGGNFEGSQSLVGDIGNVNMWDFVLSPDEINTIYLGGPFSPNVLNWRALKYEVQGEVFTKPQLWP
The data set can be described thus: competition.

B1: CRP-aptamer (40-mer) (ssDNA)
DNA: CGAAGGGGATTCGAGGGGTGATTGCGTGCTCCATTTGGTG
modifications: 5'-biotin-(CH2)6
As to B1, the binding result is recorded as “binds”.
